Measured values taken from patent publication US20190225652A1, “GENERATION OF PEPTIDES” (Hexima Limited, priority 2015, published 2019).

What was measured:
[1] = test system: rOaAEP1b; experiment: Inhibition assay: rOaAEP1b activity against wt IQF peptide; format: biochemical, Oldenlandia affinis; details: 40 minutes preincubation, rOaAEP1b 4.4 μg mL^−1, IQF peptide 11 μM, 90 minutes
Procedure: FIG. 16 is a graphical representation of rOaAEP1b activity against the IQF peptide Abz-STRNGLPS-Y(3NO2) [SEQ ID NO:21] in the presence of protease inhibitors. rOaAEP1b (4.4 μg mL^−1 total protein) was allowed to cleave the IQF peptide (11 μM) for 90 minutes. Enzyme activity against the IQF peptide in the presence of either the Ac-YVAD-CHO or Ac-STRN-CHO inhibitors is reported relative to a no inhibitor control at the 90 minutes time point.
To assay activity of recombinant AEPs (rOaAEP1b, rOaAEP3, rOaAEP4 or rOaAEP5) against both internally-quenched and other fluorescent peptides, substrate and enzyme were diluted as appropriate in activity buffer (50 mM sodium acetate, 50 mM NaCl, 1 mM EDTA, 0.5 μM TCEP, pH 5). […] The change in fluorescence intensity over time was monitored on a SpectraMax M2 (Molecular Devices) using excitation/emission wavelengths of 320/420 nm (IQF peptides) or 360/460 nm (other fluorescent peptides).
To investigate the impact of inhibitors on enzyme activity against the wild type IQF peptide, Abz-STRNGLPS-Y(3NO2), rOaAEP1b (4.4 μg mL^−1 total protein) was incubated with Ac-YVAD-CHO (500 μM) or Ac-STRN-CHO (409 μM) for 40 minutes prior to addition to the substrate (11 μM). Enzyme activity against the wt IQF peptide was then assessed as described above.

[2] = test system: rOaAEP1b, rOaAEP3, rOaAEP4 and rOaAEP5; experiment: Intermolecular ligation assay with recombinant AEPs; format: biochemical, Oldenlandia affinis; details: target 140 μM
Procedure: Target peptides (140 μM) were incubated with a ligation partner peptide (700 μM) and a recombinant AEP (rOaAEP1b, rOaAEP3, rOaAEP4 or rOaAEP5 at 19.7 μg mL^−1 total protein) in activity buffer (50 mM sodium acetate, 50 mM NaCl, 1 mM EDTA, 0.5 μM TCEP, pH 5). The reaction was allowed to proceed for up to 22 hours at room temperature and was analysed by MALDI MS or electrospray ionisation (ESI) mass spectrometry as appropriate.
(§1) Cyclization or inter-molecular ligation of linear target peptides was monitored by MALDI or ESI MS. In both cases, the reaction mixture (5-50 μL) was de-salted using C18 zip tips (Millipore) and eluted in 4 μL 50-75% v/v acetonitrile, 0.1% v/v trifluoroacetic acid (TFA).
(§2) For MALDI MS, a saturated MALDI matrix solution (α-cyano-4-hyroxycinnamic acid, CHCA, Bruker) prepared in 95% v/v acetonitrile, 0.1% v/v TFA was diluted 1:22 such that the final matrix solution comprised 90% v/v acetonitrile, 0.1% v/v TFA and 1 mM NH4H2PO4. Eluted samples were mixed 1:4 with the MALDI matrix, spotted onto a MALDI plate and analyzed by an Ultraflex III TOF/TOF (Bruker) in positive reflector mode. Data were analyzed using the flexAnalysis program (Bruker).
(§3) For ESI MS, 96 μl of 75% v/v acetonitrile, 01% v/v TFA was added to the de-salted sample. The sample was then injected into a MicroTOF Q (Bruker) and data was collected in positive ionisation mode. The mass of ligated or cyclized product was determined by charge deconvolution using the Compass DataAnalysis program (Bruker).
To investigate the ability of recombinantly produced AEPs to perform inter-molecular ligation (as well as the intra-molecular ligation required to produce backbone-cyclized peptides), target peptides were incubated with ligation partner peptides as well as active enzyme (FIG. 11). The appearance of new linear peptides were tracked. […]

[3] = test system: rOaAEP1b, rOaAEP3, rOaAEP4 and rOaAEP5; experiment: Cyclization assay with rOaAEP1b, rOaAEP3, rOaAEP4 and rOaAEP5 (MALDI/ESI MS); format: biochemical, Oldenlandia affinis
Procedure: Linear target peptides (280 μM, unless otherwise indicated) were incubated with rOaAEP1b, rOaAEP3, rOaAEP4 or rOaAEP5 (total protein concentration as indicated in the description of figures) in activity buffer (50 mM sodium acetate, 50 mM NaCl, 1 mM ethylenediaminetetraacetic acid [EDTA], 0.5 μM Tris(2-carboxyethyl)phosphine hydrochloride [TCEP], pH 5). The reaction was allowed to proceed for up to 22 hours at room temperature and was analysed by matrix-assisted laser desorption/ionization mass spectrometry (MALDI MS), high performance liquid chromatography (HPLC) or nuclear magnetic resonance (NMR) as appropriate.
as §1, §2, §3
The ability of activated AEPs (rOaAEP1b, rOaAEP3, rOaAEP4 and rOaAEP5) to cyclize peptide substrates structurally unrelated to cyclotides was tested in the cyclization assay described in the Materials and Methods. The anti-malarial peptide R1 (Harris et al. (2009) J Biol Chem 284(14):9361-9371; Harris et al. (2005) Infect Immun 73(10):6981-6989); Bac2A, a linear derivative of the bovine peptide bactenecin (Wu and Hancock (1999) Antimicrob Agents Ch 43:1274-1276); and the anti-fungal peptide EcAMP1 (Nolde et al. (2011) J Biol Chem 286(28):25145-25153) were produced with additional AEP recognition residues and used as the substrates.
To investigate the sequence requirements for in vitro cyclization, R1 was used as a model peptide. The recognition residues added to this model peptide were sequentially trimmed to determine the minimal requirements for AEP-mediated cyclization. The N- and C-terminal recognition residues were also substituted with alternate amino acids to determine if particular classes of residues were preferred for cyclization by these recombinant AEPs. The ability of activated AEPs (rOaAEP1b, rOaAEP3, rOaAEP4 and rOaAEP5) to cyclize the R1 peptide with varied flanking sequences was then tested in the cyclization assay described in the Materials and Methods (FIG. 10; Table 3).

[4] = test system: rOaAEP1b; experiment: Kinetics of rOaAEP1b-mediated cyclisation of wt kB1 precursor (RP-HPLC, Michaelis-Menten); format: biochemical, Oldenlandia affinis; details: substrate 75-250 μM, room temperature, 5 min, enzyme 19.7 μg ml^−1 total protein, ±s.e.m.
Procedure: FIG. 7 is a graphical representation showing the kinetics of rOaAEP1b-mediated cyclisation. Varying concentrations of substrate (kB1wt precursor) were incubated with enzyme (19.7 μg mL^−1 total protein) for 5 min. The amount of product formed was inferred by monitoring depletion of the precursor by RP-HPLC. […] The kinetic parameters derived from this plot are listed (±SEM).
To determine the kinetics of rOaAEP1b activity against the wt kB1 precursor (FIG. 1; SEQ ID NO: 11), the substrate was assayed at room temperature at a range of concentrations between 75 and 250 μM in a total volume of 20-160 μl of activity buffer. The total protein concentration of the enzyme preparation added to the kinetic assays was 19.7 μg ml^−1. The reaction was quenched after 5 min with 0.1% TFA and the volume adjusted to 800 μl. A volume of 700 μl was loaded onto a reversed-phase C18 analytical column (Agilent Eclipse C18, 5 μm, 4.6×150 mm) and peptides were separated by HPLC (19 min linear gradient of 12-60% acetonitrile, 0.1% TFA at 1 ml min^−1). The identity of eluted peaks was confirmed using MALDI MS. The area under the curve corresponding to the precursor peptide was quantitated by comparison to a standard curve and initial velocities were calculated by converting this to μmoles product formed. […]

[5] = test system: rOaAEP1b; experiment: Cyclization assay with rOaAEP1b (MALDI MS); format: biochemical, Oldenlandia affinis; details: MALDI MS
[6] = target: T1, R1 peptide derivative KLVFAEFLPLFSKFGSRMHILKNGL
T1 chain: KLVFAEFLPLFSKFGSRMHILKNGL

[7] = target: T2, synthetic linear kalata B1 precursor carrying the native C-terminal pro-hepta-peptide GLPSLAA (wt kB1 precursor)
T2 chain: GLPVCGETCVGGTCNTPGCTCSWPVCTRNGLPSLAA

[8] = target: T3, R1 peptide derivative GLVFAEFLPLFSKFGSRMHILKNG
T3 chain: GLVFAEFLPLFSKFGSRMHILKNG

[9] = target: T4, R1 peptide derivative VFAEFLPLFSKFGSRMHILKNGL
T4 chain: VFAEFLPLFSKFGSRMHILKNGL

[10] = target: T5, R1 peptide derivative GLVFAEFLPLFSKFGSRMHILKNGL
T5 chain: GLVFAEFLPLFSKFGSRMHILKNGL

[11] = target: T6, R1 peptide derivative QLVFAEFLPLFSKFGSRMHILKNGL
T6 chain: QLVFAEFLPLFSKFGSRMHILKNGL

[12] = target: T7, R1 peptide derivative GLPVFAEFLPLFSKFGSRMHILKSTRNGLP
T7 chain: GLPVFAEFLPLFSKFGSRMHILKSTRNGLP

With Ac-STRN-aldehyde the “efficacy of inhibitor against rOaAEP1b” value ([1]; inhibitor 409 μM) was “limited efficacy”.

Ac-YVAD-CHO was tested, and the “efficacy of inhibitor against rOaAEP1b” value ([1]; inhibitor 500 μM) was “limited efficacy”.

For “GLP-NaD1-TRNGLP: plant defensin NaD1 with AEP recognition residues at N- and C-termini, expressed in Pichia pastoris (GLPRECKTESNTFPGICITKPPCRKACISEKFTDGHCSKILRRCLCTKPCTRNGLP; Target peptides)”, the “inter-molecular ligation, C-terminal labelling” value ([2]; ligation partner GLPVSGE or PLPVSGE 700 μM, enzymes 19.7 μg mL^−1, 6-22 h, ESI-MS) was “new, linear, peptides were detected” and the “AEP-mediated backbone cyclization of modified NaD1” value ([3]; 140 μM, no ligation partner, ESI-MS) was “no evidence of backbone-cyclization”.

With “GLVFAEFLPLFSKFGSRMHILKGHV (R1) [SEQ ID NO:61, R1 peptide derivative]” the “inter-molecular ligation, N-terminal labelling” value ([2]; ligation partner biotin-TRNGL 700 μM, enzymes 19.7 μg mL^−1, 6 h, MALDI-MS) was “created a new linear peptide that incorporated an N-terminal biotin” and the “cyclization of linear precursor peptide by recombinant AEPs” value ([3]; peptides with added AEP recognition residues, 280 μM, enzymes 19.7 μg mL^−1 total protein, MS) was “not itself an AEP substrate”.

In the case of “wt kB1 precursor: synthetic linear kalata B1 precursor carrying the native C-terminal pro-hepta-peptide (GLPSLAA) (GLPVCGETCVGGTCNTPGCTCSWPVCTRNGLPSLAA; kB1wt)”, the kcat ([4]; conservative estimate (32 kDa, total protein taken as active enzyme)) is reported as 0.53 (±0.1) s^−1, the Km [4] is reported as 212 µM and the “processing/cyclization by rOaAEP1b” value [5] is reported as “consistent with the expected mass of mature, cyclic kB1”.

B1: recombinant Oldenlandia affinis asparaginyl endopeptidase OaAEP1b, activated (rOaAEP1b) (protein)
chain: MVRYLAGAVLLLVVLSVAAAVSGARDGDYLHLPSEVSRFFRPQETNDDHGEDSVGTRWAVLIAGSKGYANYRHQAGVCHAYQILKRGGLKDENIVVFMYDDIAYNESNPRPGVIINSPHGSDVYAGVPKDYTGEEVNAKNFLAAILGNKSAITGGSGKVVDSGPNDHIFIYYTDHGAAGVIGMPSKPYLYADELNDALKKKHASGTYKSLVFYLEACESGSMFEGILPEDLNIYALTSTNTTESSWCYYCPAQENPPPPEYNVCLGDLFSVAWLEDSDVQNSWYETLNQQYHHVDKRISHASHATQYGNLKLGEEGLFVYMGSNPANDNYTSLDGNALTPSSIVVNQRDADLLHLWEKFRKAPEGSARKEVAQTQIFKAMSHRVHIDSSIKLIGKLLFGIEKCTEILNAVRPAGQPLVDDWACLRSLVGTFETHCGSLSEYGMRHTRTIANICNAGISEEQMAEAASQACASIP
B1 was tested, and the Cyclic product (%) [6] was 82.2%, the Linear precursor (%) [6] was 17.8% and the Km [7] was 212 (±76) µM for Km. The kcat [7] was 0.53 (±0.1) s^-1 for kcat, the kcat/Km [7] was 2,500 M^-1 s^-1 for kcat/Km and the Linear precursor (%) [8] was 100%. The Cyclic product (%) [9] was 49.6%, the Linear precursor (%) [9] was 27.7% and the Linear product (%) [9] was 27.7%. The Cyclic product (%) [10] was 92.9%, the Linear precursor (%) [10] was 7.1% and the Cyclic product (%) [11] was 93.1%. For the same molecule, the Linear precursor (%) [11] was 6.9%, the Cyclic product (%) [12] was 78.8% and the Linear precursor (%) [12] was 21.2%.
